Results on 11 variants are retold here after the supplement of paper PMC7125110.

± gives the standard error. For part of these data: Fewer inactive variants are shown than the library holds. Where only a bound is given, the exact number is not on record here.

Sequences and labels used below:
B1: glmS ribozyme (parent)
chain: AUAAAAGCGCCAGAACUACAGAAAUGUAGUUGACGAGGAGGAGGUUUAUCGAAUUUUCGGCGGAUGCCUCCAAA

Common to all, as to details: with glucosamine-6-phosphate
The variants in data set [1] derive from B1. As to the kind of experiment: kcat; higher = faster cleavage; RNA array. The method in brief: (§1)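 Glucosamine-6-phosphate, from 40 μM to 10 mM in HEPES/KCl/Mg(OAc)2 buffer, was flowed over sequenced MiSeq chips carrying barcoded ribozyme variants transcribed in situ by E. coli RNA polymerase. A hybridised Cy3 probe tracked the variants at 37 °C as tiles were imaged over ~14 h. kobs, kcat and KM were obtained by fitting normalised per-tile medians to exponential decays and then applying weighted Michaelis–Menten fits across concentrations.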

The variants in data set [2] derive from B1. Description: KM; higher = weaker cofactor use; RNA array. The method in brief: as §1
Variants of B1 are the subject of data set [3]. Description: self-cleavage kobs at 40 uM GlcN6P; higher = faster cleavage; RNA array. The method in brief: as §1
The variants in data set [4] derive from B1. Description: self-cleavage kobs at 160 uM GlcN6P; higher = faster cleavage; RNA array. The method, boiled down:
as §1

Variants of B1 are the subject of data set [5]. As to the kind of experiment: self-cleavage kobs at 640 uM GlcN6P; higher = faster cleavage; RNA array. The method, boiled down:
as §1

In data set [6] the parent is B1. Description: self-cleavage kobs at 2500 uM GlcN6P; higher = faster cleavage; RNA array. The method, boiled down: as §1
In data set [7] the parent is B1. As to the kind of experiment: self-cleavage kobs at 10000 uM GlcN6P; higher = faster cleavage; RNA array. The method, boiled down: as §1

With AUAAAAGCGCCAGAACUACAGAAAUGUAGUGGACGAGGAGGAGGUUUAUCGACUUUUCGGCGGAUGCCUCCAAA [U31G A53C], the kcat with glucosamine-6-phosphate [1] stood at 0.00293 ± 0.00056 s⁻¹. The KM in the data set with glucosamine-6-phosphate [2] stood at 2500 ± 770 µM. Moreover, in the data set with glucosamine-6-phosphate [3], the “self-cleavage kobs at 40 uM GlcN6P” value is 3.19e-05 ± 1.2e-05 s⁻¹. The “self-cleavage kobs at 160 uM GlcN6P” value with glucosamine-6-phosphate [4] was found to be 0.000223 ± 5.6e-05 s⁻¹. The “self-cleavage kobs at 640 uM GlcN6P” value in the data set with glucosamine-6-phosphate [5] worked out at 0.000646 ± 0.00015 s⁻¹. Moreover, in the data set with glucosamine-6-phosphate [6], the “self-cleavage kobs at 2500 uM GlcN6P” value was 0.00165 ± 0.00028 s⁻¹. Besides, in the data set with glucosamine-6-phosphate [7], the “self-cleavage kobs at 10000 uM GlcN6P” value was 0.00219 ± 0.00037 s⁻¹.
In the case of AUAAAAGCGCCAGAACUACAGAAAUGUAGUUGACGAGGAGGAGGUUUAUCUAAUUUUCGGCGGAUGUCUCCAAA [G51U C67U], the kcat in the data set with glucosamine-6-phosphate [1] was less than 1e-05 s⁻¹. The “self-cleavage kobs at 10000 uM GlcN6P” value in the data set with glucosamine-6-phosphate [7] is less than 1e-05 s⁻¹.
For AUAAAAGCGCCAGUACUACAGAAAUGUAGUUGACGAGGAGGAGGUUUAUCGAAUUUUCGGCGGUUGCCUCCAAA [A14U A64U], the kcat with glucosamine-6-phosphate [1] came out at 1.88e-05 ± 5.9e-07 s⁻¹. Also, the Michaelis-Menten constant (KM) in the data set with glucosamine-6-phosphate [2] was 8870 ± 560 µM.
As to AUAAAAGCGCCAGGACUACAGAAAUGUAGUUGACGAGGAGGAGGUUUAUCGAAUUUUCGACGGAUGCCUGCAAA [A14G G60A C70G], the kcat with glucosamine-6-phosphate [1] was 1.55e-05 ± 4e-06 s⁻¹. Moreover, the “self-cleavage kobs at 40 uM GlcN6P” value in the data set with glucosamine-6-phosphate [3] is less than 1e-05 s⁻¹.
As for AUAAAAGCGUUAGAACUACAGAAAUGUAGUUGACGAGGAGGAGGUUUAUCGAAUUUUCGGCGGAUGCCUCCAAA [C10U C11U], the kcat in the data set with glucosamine-6-phosphate [1] stood at 3.12e-05 ± 1.5e-05 s⁻¹. Further, the “self-cleavage kobs at 40 uM GlcN6P” value with glucosamine-6-phosphate [3] is less than 1e-05 s⁻¹. Also, the “self-cleavage kobs at 160 uM GlcN6P” value with glucosamine-6-phosphate [4] was less than 1e-05 s⁻¹.
Consider AUAAAAGCGCCAGAACUACAGAAAUGUAGUUGACGCGGAGGAGGUUUAUUGAAUUUUCGGCGGAUGCCUCCAAA [A36C C50U], for which the kcat with glucosamine-6-phosphate [1] was less than 1e-05 s⁻¹. The “self-cleavage kobs at 40 uM GlcN6P” value in the data set with glucosamine-6-phosphate [3] is less than 1e-05 s⁻¹.
For AUAAAAGCGCCAGAACUACAGAAAUGUAGUCGACGAUGAGGAGGUUUAUCGAAUUUUCGGCCGUUGCCUACAAA [U31C G37U G62C A64U C70A], the kcat with glucosamine-6-phosphate [1] was less than 1e-05 s⁻¹. Moreover, the “self-cleavage kobs at 40 uM GlcN6P” value with glucosamine-6-phosphate [3] is less than 1e-05 s⁻¹. In addition, the “self-cleavage kobs at 10000 uM GlcN6P” value in the data set with glucosamine-6-phosphate [7] is less than 1e-05 s⁻¹.
Take AUAAAAGCGCCAGAACUACAGAAAUGUAGUUGACGAGGAGGGGGUUUAUCGAAUUUUCGGCGGAUGCCUACAAA [A42G C70A]: the kcat in the data set with glucosamine-6-phosphate [1] worked out at 0.000182 ± 4.2e-05 s⁻¹. The “self-cleavage kobs at 40 uM GlcN6P” value in the data set with glucosamine-6-phosphate [3] stood at 4.72e-05 ± 8.8e-06 s⁻¹. Further, the “self-cleavage kobs at 160 uM GlcN6P” value in the data set with glucosamine-6-phosphate [4] is 6.35e-05 ± 1.1e-05 s⁻¹. The “self-cleavage kobs at 640 uM GlcN6P” value with glucosamine-6-phosphate [5] turned out to be 0.000154 ± 1.6e-05 s⁻¹. In the data set with glucosamine-6-phosphate [6], the “self-cleavage kobs at 2500 uM GlcN6P” value was 0.000325 ± 3.7e-05 s⁻¹. Besides, the “self-cleavage kobs at 10000 uM GlcN6P” value with glucosamine-6-phosphate [7] came to 0.000155 ± 1.5e-05 s⁻¹.
Turning to AUAAAAGCGCCAGAACUACAGAAAUGUAGUUGACGAGGAGGAGGUCUAUCGAAUUUUCGGCGGAUGCCUUCAAA [U46C C70U], the kcat with glucosamine-6-phosphate [1] is 0.00656 ± 0.0027 s⁻¹. Besides, in the data set with glucosamine-6-phosphate [3], the “self-cleavage kobs at 40 uM GlcN6P” value amounted to 0.00017 ± 2.3e-05 s⁻¹. The “self-cleavage kobs at 160 uM GlcN6P” value in the data set with glucosamine-6-phosphate [4] came out at 0.00026 ± 3.8e-05 s⁻¹. In addition, in the data set with glucosamine-6-phosphate [5], the “self-cleavage kobs at 640 uM GlcN6P” value worked out at 0.00156 ± 0.00017 s⁻¹. Moreover, the “self-cleavage kobs at 2500 uM GlcN6P” value with glucosamine-6-phosphate [6] stood at 0.00301 ± 0.00041 s⁻¹. For the same variant, the “self-cleavage kobs at 10000 uM GlcN6P” value with glucosamine-6-phosphate [7] was found to be 0.00508 ± 0.00066 s⁻¹.
As to AUAAAAGCGCCAGCAGUACAGAAAUGUAGUUGACGAGGAGGAGGUUUAUCGAUUUUUCGGCGGAUGCCUCCAAA [A14C C16G A53U], the turnover number (kcat) in the data set with glucosamine-6-phosphate [1] came out at 2.08e-05 ± 7.9e-07 s⁻¹. In addition, in the data set with glucosamine-6-phosphate [2], the KM stood at 1700 ± 260 µM.
For the variant AUAAAAGCGCCAGAACUACAGAAAUGUAGUUGACGAGGAGGAGGUUUAUCGAAUUUUCGGCGGAUUCCUACAAA [G66U C70A], the kcat with glucosamine-6-phosphate [1] amounted to 7.35e-05 ± 1.3e-05 s⁻¹. For the same variant, in the data set with glucosamine-6-phosphate [5], the “self-cleavage kobs at 640 uM GlcN6P” value was determined as 0.000101 ± 4.5e-05 s⁻¹. Further, the “self-cleavage kobs at 2500 uM GlcN6P” value with glucosamine-6-phosphate [6] is 8.96e-05 ± 3e-05 s⁻¹. In the data set with glucosamine-6-phosphate [7], the “self-cleavage kobs at 10000 uM GlcN6P” value stood at 6.04e-05 ± 2e-05 s⁻¹.

The term kcat denotes the number of substrate molecules converted per active site and unit of time at saturation. What is called KM is the concentration of substrate that gives half-maximal velocity.
